According to patent publication US20190071499A1 (published 2019):
Numbering of substitutions follows the chain as printed.

B1: 26B9 (antibody, human IgG1, kappa, V domains shown)
VH: QILLQESGPGLVKPTETLSLTCSVSGDSISDSSHYWAWIRQPPGKGPEWIGSVYFSSMTHYNPSLKSRVSISVDKPKNQFSLKVTSVTVADTATYYCARQALARVGAMNWFDPWGQGSLVTVSS
VL: DIIMTQSPDSLPVSLGEGVTINCKSSQSVFFTSSNKSCLAWYQQKPGKSPKLLIYWASTRQSGVPDRFRGSGSGTDFSLTITSLQAEDVAVYFCQQCQTSPPTFGGGTRLEIKR
notes: human-derived IgG1, kappa; also called MAB 26B9; hMAB 26B9
B2: 31B4 (antibody, human IgG1, kappa, V domains shown)
VH: B1 VH with L3Q, K13R, D31Q, K66T, V73I, P76A, K77M, Q79K
VL: DIIMTQSPESLPVSLGEGVTINCKSSQSVFFTSSNRSCLAWYQQKPGQSPKLLIYWASTRQSGVPDRFTGSGSGTDFSLTIAGLQVEDVAVYFCQQCHASPPTFGGGTRLELRR
notes: human-derived IgG1, kappa; clonally related to 26B9; also called MAB 31B4; hMAB 31B4
B3: 25C3 (antibody, human IgG1, kappa, V domains shown)
VH: EMQLMESGGGLVQPGGSLRLSCVASGFTFKSFAMSWVRQAPGKGLEWVASVGSQGGSKYYAPSVKGRFSISRDNSNNTLYVQMNSLGVEDTAFYYCVKETDAVATMDALDMWGQGTLVIVST
VL: DIRVTQSPSSLSASVGDRVSISCQTSQSVNIYLNWYQQRPGKGPQLLISAASTLQSGVPSRFSGSGSGTDFILTIISLQPEDSASYYCQQGYITPYTFGQGTKVEIKR
notes: human-derived IgG1, kappa; also called MAB 25C3; hMAB 25C3
B4: 13B11 (antibody, human IgG1, kappa, V domains shown)
VH: DVQLLQSGGGLIQPGGSLRLSCAASGFTFKDYAMSWVRQAPGKGLEWVSVISRSGNIVDYVDSVKGRFTVSRDNSNNTLFLQMDGLRADDTAIYYCAKPKDMIVVVPAGFDSWGQGTLVSVSS
VL: DIQMTQFPSTLSASVGDSVTITCRASQSISAWLAWYQQKPGKAPKLLIYKGSRLENGVPSRFSGSGSGTEFTLTIGSLQPDDFATYYCQQYKTWTFGQGTKVEIKR
notes: human-derived IgG1, kappa; also called MAB 13B11; hMAB 13B11
B5: 8H1 (antibody, human IgG1, kappa, V domains shown)
VH: QVQLVQSGAEVKKPGASVKVSCKASGQTFTSDDINWVRQAPGQGLEWMGWRNPNTQDTGYAQKFHGRLTLTSNSSISTSYLELSGLRSEDTAVYYCARAGTSTLTGHYFALGVWGQGTTVIVSS
VL: DIQLTQSPSSLSASVGDRVTITCQATQDISKYLNWYQQKPGKVPKLLIYETSNLEVGVPSRFSGSGSGTHFTLTISSLQAEDFATYYCQQYENFPFTFGGGTKVEIKR
B6: 12H5 (antibody, human IgG1, kappa, V domains shown)
VH: QVQLIQSGPEVKRPGASVKVSCKASENTFDTHYINWVRQAPGQGLTWLGWLNPTTGKTGFPQKFKGRVILTSDTSLNTAYMEVSRLTSEDTAVYFCARVLKLSDEYNYGFDVWGQGTTVIVSS
VL: DIQVTQSPSSLSASIGDRVTITCRASQNILTFINWYQHKPGKAPKLLIYAASVLQNEVPSRFSGSGSGTDFTLTITSLQPDDFGTYYCQQTYLTPQCSFGQGTKVEIKR
B7: 50E11 (antibody, human IgG1, kappa, V domains shown)
VH: QVQLVQSGAEMKKPGSSVKVSCKDFGGTFSVYGVNWVRQAPGQGLEWMGGLIPVIGPANYAQKFQGRITITADESTSTAYMELSSLRFDDTAIYYCVRDDNEYWGQGTLVTVSS
VL: EMVLTQSPATLSLSPGERATLSCRASQTVSTFLAWYQQKPGQVPRLLVYDISSRANGTPARFSGGGSGTDFTLTISSLELEDFAVYYCQWRSNWPPSLTFGGGTRVEIKR

Molecular target: T1, peptide 23 of human IFN-αW (IFN-ω) (human)
T1 construct: spotted on a microarray through a linker
T1 peptide: TGLHQQLQHLETCLLQVV
Experiment: peptide microarray, 18mer peptides of human IFN-αW

Binder	binding result
B1	binds

Molecular target: T2, human IFN-α4 (human, UniProt P05014 24-189)
T2 construct: commercial recombinant protein; also called rhIFN-α4; IFN-α4 (SinoBiological)
T2 sequence (P05014 24-189 limits assumed): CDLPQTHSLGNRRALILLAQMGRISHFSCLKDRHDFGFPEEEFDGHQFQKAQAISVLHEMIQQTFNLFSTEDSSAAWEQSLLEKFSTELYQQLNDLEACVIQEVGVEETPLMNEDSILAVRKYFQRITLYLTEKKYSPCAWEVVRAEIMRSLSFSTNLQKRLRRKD
Experiment: ELISA or LIPS (Table 7 summary)

Binder	binding result
B2	binds

Molecular target: T3, human IFN-α1 (human, UniProt P0DY56 24-189)
T3 construct: commercial recombinant protein; also called IFN-alpha 1beta; IFN-α1/13
T3 sequence (P0DY56 entry or part of it limits assumed): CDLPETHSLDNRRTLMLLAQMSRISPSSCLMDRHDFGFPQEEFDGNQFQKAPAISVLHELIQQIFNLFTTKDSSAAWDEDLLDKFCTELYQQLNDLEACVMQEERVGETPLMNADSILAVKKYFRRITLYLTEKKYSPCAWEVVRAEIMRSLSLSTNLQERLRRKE
Experiment: ELISA or LIPS (Table 7 summary)

Binder	binding result
B2	binds
B3	binds
B4	binds

Molecular target: T4, human IFN-α14 (human, UniProt P01570 24-189)
T4 construct: commercial recombinant protein; also called rhIFN-α14; IFN-α14 (ATGen)
T4 sequence (P01570 24-189 limits assumed): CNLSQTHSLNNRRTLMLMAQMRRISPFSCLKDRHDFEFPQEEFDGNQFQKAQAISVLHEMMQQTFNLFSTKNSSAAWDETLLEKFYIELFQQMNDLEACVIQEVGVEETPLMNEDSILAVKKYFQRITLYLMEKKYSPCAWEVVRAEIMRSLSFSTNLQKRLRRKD
Experiment: ELISA or LIPS (Table 7 summary)

Binder	binding result
B2	binds
B4	binds

Molecular target: T5, human IFN-α10 (human, UniProt P01566 24-189)
T5 construct: recombinant protein; also called rhIFN-α10
T5 sequence (P01566 24-189 limits assumed): as the sequence (P05014 24-189 limits assumed) above, with A19G, H26P, G37R, F38I, E40Q, H46N, T132I, K134R counted along it
Experiment: ELISA or LIPS (Table 7 summary)

Binder	binding result
B2	binds
B3	binds

Molecular target: T6, human IFN-α16 (human, UniProt P05015 24-189)
T6 construct: recombinant protein; also called rhIFN-α16
T6 sequence (P05015 24-189 limits assumed): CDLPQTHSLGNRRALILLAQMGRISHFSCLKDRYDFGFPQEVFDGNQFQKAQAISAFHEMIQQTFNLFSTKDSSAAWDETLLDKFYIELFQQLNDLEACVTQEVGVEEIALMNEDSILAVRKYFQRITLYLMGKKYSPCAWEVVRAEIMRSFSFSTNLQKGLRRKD
Experiment: ELISA or LIPS (Table 7 summary)

Binder	binding result
B2	binds
B3	binds
B4	binds

Molecular target: T7, human IFN-α21 (human, UniProt P01568 24-189)
T7 construct: commercial recombinant protein; also called rhIFN-α21; IFN-α21 (PBL)
T7 sequence (P01568 24-189 limits assumed): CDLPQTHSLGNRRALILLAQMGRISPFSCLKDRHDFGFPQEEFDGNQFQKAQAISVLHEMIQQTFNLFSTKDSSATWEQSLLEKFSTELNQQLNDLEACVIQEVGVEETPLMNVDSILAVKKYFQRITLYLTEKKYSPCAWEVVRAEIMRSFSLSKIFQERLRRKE
Experiment: ELISA or LIPS (Table 7 summary)

Binder	binding result
B2	binds
B3	binds

Molecular target: T8, g1 IFN-α10 (human, UniProt P01566 24-189)
T8 construct: in-house fusion; also called IFN-α10-Gaussia luciferase fusion protein; not shown: Gaussia luciferase (naturally secreted), N-terminal fusion partner
T8 sequence (P01566 24-189): as the sequence (P05014 24-189 limits assumed) above, with A19G, H26P, G37R, F38I, E40Q, H46N, T132I, K134R counted along it
Experiment: LIPS, IFN-Gaussia luciferase fusion proteins

Binder	binding result
B2	binds

Molecular target: T9, g1mIFN-α9 (mouse, UniProt P09235 24-190)
T9 construct: also called murine IFN-α9 (Gaussia luciferase fusion); not shown: Gaussia luciferase fusion partner
T9 sequence (looked up): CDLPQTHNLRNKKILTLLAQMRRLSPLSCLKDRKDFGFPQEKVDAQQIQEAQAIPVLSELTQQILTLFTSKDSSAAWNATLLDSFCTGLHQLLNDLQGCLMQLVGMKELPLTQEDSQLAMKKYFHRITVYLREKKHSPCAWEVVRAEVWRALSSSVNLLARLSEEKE
Experiment: LIPS

Binder	binding result
B1	no binding
B2	no binding
B3	no binding
B4	no binding

Molecular target: T10, g1mIFN-α1 (mouse, UniProt P01572 24-189)
T10 construct: also called murine IFN-α1 (Gaussia luciferase fusion); not shown: Gaussia luciferase fusion partner
T10 sequence (looked up): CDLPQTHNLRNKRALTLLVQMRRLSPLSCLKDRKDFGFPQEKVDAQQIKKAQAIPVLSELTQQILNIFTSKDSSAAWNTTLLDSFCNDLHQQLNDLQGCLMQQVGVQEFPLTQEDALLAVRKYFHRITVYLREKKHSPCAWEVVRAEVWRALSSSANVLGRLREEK
Experiment: LIPS

Binder	binding result
B1	no binding
B2	no binding
B3	no binding
B4	no binding

Molecular target: T11, peptide 22 of human IFN-α2 (human)
T11 construct: spotted on a microarray through a linker
T11 peptide: YTELYQQLNDLEACVIQG
Experiment: peptide microarray, 18mer peptides of human IFN-α2

Binder	binding result
B1	binds

Molecular target: T12, human Fc fusion mouse IFN-α2 (mouse, UniProt P01573 24-190)
T12 construct: bought (SinoBiological); also called murine IFN-α2; murine INFA2; not shown: human Fc
T12 sequence (looked up): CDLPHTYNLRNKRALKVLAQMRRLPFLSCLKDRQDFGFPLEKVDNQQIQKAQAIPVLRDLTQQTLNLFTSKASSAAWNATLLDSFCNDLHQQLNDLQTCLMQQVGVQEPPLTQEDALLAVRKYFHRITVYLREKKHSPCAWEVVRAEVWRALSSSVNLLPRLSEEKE
Experiment: ELISA, human Fc fusion mouse IFN-α

Binder	binding result
B1	no binding
B2	no binding
B4	no binding

Molecular target: T13, human Fc fusion mouse IFN-α4 (mouse, UniProt P07351 25-186)
T13 construct: bought (SinoBiological); also called murine IFN-α4; not shown: human Fc
T13 sequence (looked up): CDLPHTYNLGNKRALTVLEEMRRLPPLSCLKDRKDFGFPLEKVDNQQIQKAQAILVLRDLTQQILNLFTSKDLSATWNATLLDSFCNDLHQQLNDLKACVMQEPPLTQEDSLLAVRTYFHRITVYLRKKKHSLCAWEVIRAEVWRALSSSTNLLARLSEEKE
Experiment: ELISA, human Fc fusion mouse IFN-α

Binder	binding result
B1	no binding
B2	no binding
B4	no binding

Molecular target: T2, human IFN-α4
Experiment: cell-based or functional assay

Binder	IC 50 (ng/ml), ISRE dual luciferase reporter assay [ng/mL]
B1	2.07
B5	5.43
B6	0.48
B7	20.2

Molecular target: T3, human IFN-α1
Experiment: cell-based or functional assay

Binder	IC 50 (ng/ml), ISRE dual luciferase reporter assay [ng/mL]
B1	8.6
B5	29
B6	51.3
B7	97.4

Molecular target: T4, human IFN-α14
Experiment: cell-based or functional assay

Binder	IC 50 (ng/ml), ISRE dual luciferase reporter assay [ng/mL]
B1	2.01
B5	785
B6	2.15
B7	9.2

Molecular target: T5, human IFN-α10
Experiment: cell-based or functional assay

Binder	IC 50 (ng/ml), ISRE dual luciferase reporter assay [ng/mL]
B1	1.84
B5	2.69
B6	0.66
B7	3.63

Molecular target: human IFN-α6 (human, UniProt P05013 24-189, limits assumed)
Sequence (P05013 24-189 limits assumed): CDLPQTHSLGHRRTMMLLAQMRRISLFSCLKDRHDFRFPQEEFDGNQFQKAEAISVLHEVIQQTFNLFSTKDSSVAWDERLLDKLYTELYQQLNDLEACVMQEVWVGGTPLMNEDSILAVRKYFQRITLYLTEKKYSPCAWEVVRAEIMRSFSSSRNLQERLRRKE
Experiment: cell-based or functional assay

Binder	IC 50 (ng/ml), ISRE dual luciferase reporter assay [ng/mL]
B1	3.16
B5	77.7
B6	3.55
B7	39.3

Molecular target: human IFN-α17 (human, UniProt P01571 24-189)
Sequence (P01571 24-189 limits assumed): as the sequence (P05014 24-189 limits assumed) above, with H26P, F38L, E40Q, H46N, A51T, D95N, V106M, R161I counted along it
Experiment: cell-based or functional assay

Binder	IC 50 (ng/ml), ISRE dual luciferase reporter assay [ng/mL]
B1	2.22
B5	2.11
B6	0.75
B7	2.31

Molecular target: T6, human IFN-α16
Experiment: cell-based or functional assay

Binder	IC 50 (ng/ml), ISRE dual luciferase reporter assay [ng/mL]
B1	4010
B5	1.86
B6	33
B7	2.35

Molecular target: human IFN-α5 (human, UniProt P01569 24-189, limits assumed)
Sequence (P01569 24-189 limits assumed): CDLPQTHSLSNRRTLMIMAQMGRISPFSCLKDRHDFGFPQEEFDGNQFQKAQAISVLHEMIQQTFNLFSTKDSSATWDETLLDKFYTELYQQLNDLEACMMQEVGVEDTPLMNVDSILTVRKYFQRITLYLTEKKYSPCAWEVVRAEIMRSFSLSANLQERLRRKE
Experiment: cell-based or functional assay

Binder	IC 50 (ng/ml), ISRE dual luciferase reporter assay [ng/mL]
B1	3.74
B5	1.78
B6	22.6
B7	0.91

Molecular target: human IFN-α7 (human, UniProt P01567 24-189)
Sequence (P01567 24-189 limits assumed): as the sequence (P05014 24-189 limits assumed) above, with G10R, H26P, D35E, G37R, A51T, S116F, T132M, L152F, Q159K, R161G counted along it
Experiment: cell-based or functional assay

Binder	IC 50 (ng/ml), ISRE dual luciferase reporter assay [ng/mL]
B1	1.57
B5	0.9
B6	0.64
B7	1.9

Molecular target: human IFN-ω (human, UniProt P05000 24-195, limits assumed)
Sequence (P05000 24-195 limits assumed): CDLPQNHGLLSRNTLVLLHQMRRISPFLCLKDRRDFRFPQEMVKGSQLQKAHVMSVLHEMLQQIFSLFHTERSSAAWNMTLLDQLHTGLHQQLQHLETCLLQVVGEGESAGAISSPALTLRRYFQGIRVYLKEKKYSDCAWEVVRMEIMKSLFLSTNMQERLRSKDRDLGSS
Experiment: cell-based or functional assay

Binder	IC 50 (ng/ml), ISRE dual luciferase reporter assay [ng/mL]
B1	0.5
B5	2.13
B7	113

Molecular target: T7, human IFN-α21
Experiment: cell-based or functional assay

Binder	IC 50 (ng/ml), ISRE dual luciferase reporter assay [ng/mL]
B1	4.65
B5	2.78
B6	13
B7	3.05
